Test results reported in patent US20190185537A1 (AstraZeneca / MedImmune, published 2019).
Read-outs that look alike come from different tables or passages of the source. Numbered stars: 1 amine (or outer) side, 2 acyl side, 3 side chain; on linkers, the order of the positions; unused ones are H or OH. Side chains are listed from the residue outwards. Ends that are not written are not given here. * marks the point of attachment. γGlu = O=C(O)[C@H](CCC(=O)[*:2])N[*:1]; Palmitoyl = CCCCCCCCCCCCCCCC(=O)*

T1: human glucose-dependent insulinotropic peptide (gastric inhibitory polypeptide) receptor (human) (UniProt P48546)
T1 sequence (looked up): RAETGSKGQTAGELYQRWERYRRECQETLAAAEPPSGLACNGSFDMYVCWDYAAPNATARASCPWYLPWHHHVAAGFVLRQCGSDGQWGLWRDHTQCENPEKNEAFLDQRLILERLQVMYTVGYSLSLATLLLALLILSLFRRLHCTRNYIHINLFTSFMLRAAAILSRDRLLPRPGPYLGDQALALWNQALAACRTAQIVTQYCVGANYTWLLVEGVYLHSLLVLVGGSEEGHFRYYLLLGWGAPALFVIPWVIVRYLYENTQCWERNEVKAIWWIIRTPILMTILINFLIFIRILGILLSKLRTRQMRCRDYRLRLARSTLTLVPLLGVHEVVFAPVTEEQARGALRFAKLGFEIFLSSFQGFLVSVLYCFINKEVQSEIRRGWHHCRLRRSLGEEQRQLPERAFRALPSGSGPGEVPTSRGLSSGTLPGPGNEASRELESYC

T2: human glucose-dependent insulinotropic peptide (gastric inhibitory polypeptide) receptor (human, UniProt P48546 22-466)
T2 sequence (looked up): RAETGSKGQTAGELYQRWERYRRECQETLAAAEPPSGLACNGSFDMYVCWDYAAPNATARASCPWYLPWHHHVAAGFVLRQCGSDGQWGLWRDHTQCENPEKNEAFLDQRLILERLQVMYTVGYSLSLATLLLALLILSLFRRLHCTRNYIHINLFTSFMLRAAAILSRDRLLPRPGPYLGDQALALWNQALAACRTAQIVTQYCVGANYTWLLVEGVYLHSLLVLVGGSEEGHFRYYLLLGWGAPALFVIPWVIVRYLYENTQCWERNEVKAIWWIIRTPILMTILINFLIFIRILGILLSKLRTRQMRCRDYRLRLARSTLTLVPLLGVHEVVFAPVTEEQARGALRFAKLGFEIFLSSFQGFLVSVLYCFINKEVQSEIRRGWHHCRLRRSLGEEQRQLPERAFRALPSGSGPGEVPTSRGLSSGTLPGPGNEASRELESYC

T3: mouse GLP-1 receptor (mouse, UniProt O35659 22-463)
T3 sequence (looked up): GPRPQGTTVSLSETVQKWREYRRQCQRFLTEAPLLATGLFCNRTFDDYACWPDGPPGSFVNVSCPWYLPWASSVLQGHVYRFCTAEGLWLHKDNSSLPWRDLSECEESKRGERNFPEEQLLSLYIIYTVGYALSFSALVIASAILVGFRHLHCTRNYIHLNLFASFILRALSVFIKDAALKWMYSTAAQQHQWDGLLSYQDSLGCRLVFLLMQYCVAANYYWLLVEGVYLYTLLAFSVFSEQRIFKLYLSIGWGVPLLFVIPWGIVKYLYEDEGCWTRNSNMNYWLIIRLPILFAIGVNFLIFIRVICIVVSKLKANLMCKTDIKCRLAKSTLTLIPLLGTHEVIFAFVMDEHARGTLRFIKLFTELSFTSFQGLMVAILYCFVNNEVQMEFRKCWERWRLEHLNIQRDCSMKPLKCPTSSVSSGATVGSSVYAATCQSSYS


Tests used:
Assay in all cases: cell-based or functional assay
human glucagon receptor [1] = molecular target: T4, human glucagon receptor (human, UniProt P47871 26-477)
T4 sequence (P47871 26-477): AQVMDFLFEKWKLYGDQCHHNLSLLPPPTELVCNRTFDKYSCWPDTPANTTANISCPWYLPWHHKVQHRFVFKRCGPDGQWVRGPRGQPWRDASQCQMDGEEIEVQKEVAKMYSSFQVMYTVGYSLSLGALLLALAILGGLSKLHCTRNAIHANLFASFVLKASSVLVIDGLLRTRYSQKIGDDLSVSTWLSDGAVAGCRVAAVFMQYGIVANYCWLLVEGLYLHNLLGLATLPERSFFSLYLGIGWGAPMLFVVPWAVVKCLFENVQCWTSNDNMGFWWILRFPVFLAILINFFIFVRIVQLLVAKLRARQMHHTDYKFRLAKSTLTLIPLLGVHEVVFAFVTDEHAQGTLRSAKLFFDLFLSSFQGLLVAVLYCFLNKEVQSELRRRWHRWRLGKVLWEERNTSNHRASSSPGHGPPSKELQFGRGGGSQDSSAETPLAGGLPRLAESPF

[2] = molecular target: T1, human glucose-dependent insulinotropic peptide (gastric inhibitory polypeptide) receptor (human)
human GLP-1 receptor [3] = molecular target: T5, human GLP-1 receptor (human, UniProt P43220 24-463)
Target sequence in this assay (P43220 24-463): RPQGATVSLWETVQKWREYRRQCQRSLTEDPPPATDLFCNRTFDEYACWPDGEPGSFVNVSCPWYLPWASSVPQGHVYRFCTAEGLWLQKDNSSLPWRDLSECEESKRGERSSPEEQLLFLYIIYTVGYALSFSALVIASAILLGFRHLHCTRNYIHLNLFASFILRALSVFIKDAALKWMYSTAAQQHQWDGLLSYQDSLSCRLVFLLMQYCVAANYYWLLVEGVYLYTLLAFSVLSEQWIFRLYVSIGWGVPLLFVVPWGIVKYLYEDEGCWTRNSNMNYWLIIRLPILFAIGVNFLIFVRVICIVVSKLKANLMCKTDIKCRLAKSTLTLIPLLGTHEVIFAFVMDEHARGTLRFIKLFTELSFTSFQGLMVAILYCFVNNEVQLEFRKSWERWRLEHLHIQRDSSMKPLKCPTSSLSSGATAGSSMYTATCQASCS

human glucagon receptor [4] = molecular target: T4, human glucagon receptor; remark: listed apart in the source
human GLP-1 receptor [5] = molecular target: T5, human GLP-1 receptor; remark: listed apart in the source
[6] = molecular target: T2, human glucose-dependent insulinotropic …
human glucagon receptor [7] = molecular target: T4, human glucagon receptor; remark: listed apart in the source
human GLP-1 receptor [8] = molecular target: T5, human GLP-1 receptor; remark: listed apart in the source
[9] = molecular target: T2, human glucose-dependent insulinotropic …; remark: listed apart in the source
mouse GLP-1 receptor = molecular target: T3, mouse GLP-1 receptor
mouse glucagon receptor = mouse glucagon receptor (mouse, UniProt Q61606 27-485)
Sequence of mouse glucagon receptor (Q61606 27-485): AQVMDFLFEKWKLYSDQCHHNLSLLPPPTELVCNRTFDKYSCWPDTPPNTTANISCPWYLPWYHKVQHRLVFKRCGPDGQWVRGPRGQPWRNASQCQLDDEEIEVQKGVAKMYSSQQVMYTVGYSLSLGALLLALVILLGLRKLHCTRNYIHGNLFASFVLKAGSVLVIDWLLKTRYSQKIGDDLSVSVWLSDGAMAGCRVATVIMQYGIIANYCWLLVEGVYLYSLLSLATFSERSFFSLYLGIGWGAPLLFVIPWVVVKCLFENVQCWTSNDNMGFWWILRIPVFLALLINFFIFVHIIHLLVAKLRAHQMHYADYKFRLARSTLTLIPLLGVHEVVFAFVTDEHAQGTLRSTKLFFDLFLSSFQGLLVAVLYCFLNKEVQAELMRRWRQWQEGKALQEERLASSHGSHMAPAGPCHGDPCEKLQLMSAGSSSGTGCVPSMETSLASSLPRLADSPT

human GLP-1 receptor [10] = molecular target: T5, human GLP-1 receptor; remark: listed apart in the source
rat glucagon receptor = rat glucagon receptor (rat, UniProt P30082 27-485)
Sequence of rat glucagon receptor (P30082 27-485): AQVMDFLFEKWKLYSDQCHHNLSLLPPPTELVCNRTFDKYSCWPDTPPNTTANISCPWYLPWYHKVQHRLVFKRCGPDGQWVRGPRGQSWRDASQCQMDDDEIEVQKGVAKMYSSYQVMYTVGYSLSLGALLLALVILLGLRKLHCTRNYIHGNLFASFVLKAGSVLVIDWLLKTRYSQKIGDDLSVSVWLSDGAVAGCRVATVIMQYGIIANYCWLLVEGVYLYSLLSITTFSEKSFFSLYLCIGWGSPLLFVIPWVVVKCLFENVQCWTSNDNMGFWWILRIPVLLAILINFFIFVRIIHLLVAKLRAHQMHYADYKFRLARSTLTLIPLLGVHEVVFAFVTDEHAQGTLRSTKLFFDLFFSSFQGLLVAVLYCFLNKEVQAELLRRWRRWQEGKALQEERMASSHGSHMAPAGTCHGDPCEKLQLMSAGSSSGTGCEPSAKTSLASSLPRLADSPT

cAMP EC50 (assay 1) (human glucagon receptor [1]) [nM]	cAMP EC50 (assay 1) [2] [nM]	cAMP EC50 (assay 1) (human GLP-1 receptor [3]) [nM]	Binder	further results
0.0277	40.7	0.0422	HSQGTFTSDYSEYK([γGlu-Palmitoyl])DSRRAQDFVQWLVAGG-NH2 (N-terminus assumed; SMILES CCCCCCCCCCCCCCCC(=O)N[C@@H](CCC(=O)NCCCC[C@H](NC(=O)[C@H](Cc1ccc(O)cc1)NC(=O)[C@H](CCC(=O)O)NC(=O)[C@H](CO)NC(=O)[C@H](Cc1ccc(O)cc1)NC(=O)[C@H](CC(=O)O)NC(=O)[C@H](CO)NC(=O)[C@@H](NC(=O)[C@H](Cc1ccccc1)NC(=O)[C@@H](NC(=O)CNC(=O)[C@H](CCC(N)=O)NC(=O)[C@H](CO)NC(=O)[C@@H](N)Cc1c[nH]cn1)[C@@H](C)O)[C@@H](C)O)C(=O)N[C@@H](CC(=O)O)C(=O)N[C@@H](CO)C(=O)N[C@@H](CCCNC(=N)N)C(=O)N[C@@H](CCCNC(=N)N)C(=O)N[C@@H](C)C(=O)N[C@@H](CCC(N)=O)C(=O)N[C@@H](CC(=O)O)C(=O)N[C@@H](Cc1ccccc1)C(=O)N[C@H](C(=O)N[C@@H](CCC(N)=O)C(=O)N[C@@H](Cc1c[nH]c2ccccc12)C(=O)N[C@@H](CC(C)C)C(=O)N[C@H](C(=O)N[C@@H](C)C(=O)NCC(=O)NCC(N)=O)C(C)C)C(C)C)C(=O)O) [g731]	
0.0341	11.8	0.0438	HSQGTFTSDYSEYK([γGlu-Palmitoyl])DSERARDFVAWLVAGG-NH2 (N-terminus assumed; SMILES CCCCCCCCCCCCCCCC(=O)N[C@@H](CCC(=O)NCCCC[C@H](NC(=O)[C@H](Cc1ccc(O)cc1)NC(=O)[C@H](CCC(=O)O)NC(=O)[C@H](CO)NC(=O)[C@H](Cc1ccc(O)cc1)NC(=O)[C@H](CC(=O)O)NC(=O)[C@H](CO)NC(=O)[C@@H](NC(=O)[C@H](Cc1ccccc1)NC(=O)[C@@H](NC(=O)CNC(=O)[C@H](CCC(N)=O)NC(=O)[C@H](CO)NC(=O)[C@@H](N)Cc1c[nH]cn1)[C@@H](C)O)[C@@H](C)O)C(=O)N[C@@H](CC(=O)O)C(=O)N[C@@H](CO)C(=O)N[C@@H](CCC(=O)O)C(=O)N[C@@H](CCCNC(=N)N)C(=O)N[C@@H](C)C(=O)N[C@@H](CCCNC(=N)N)C(=O)N[C@@H](CC(=O)O)C(=O)N[C@@H](Cc1ccccc1)C(=O)N[C@H](C(=O)N[C@@H](C)C(=O)N[C@@H](Cc1c[nH]c2ccccc12)C(=O)N[C@@H](CC(C)C)C(=O)N[C@H](C(=O)N[C@@H](C)C(=O)NCC(=O)NCC(N)=O)C(C)C)C(C)C)C(=O)O) [g846]	
			HSQGTFTSDK([γGlu-Palmitoyl])SRYLDSERARDFVAWLEAGG-NH2 (N-terminus assumed; SMILES CCCCCCCCCCCCCCCC(=O)N[C@@H](CCC(=O)NCCCC[C@H](NC(=O)[C@H](CC(=O)O)NC(=O)[C@H](CO)NC(=O)[C@@H](NC(=O)[C@H](Cc1ccccc1)NC(=O)[C@@H](NC(=O)CNC(=O)[C@H](CCC(N)=O)NC(=O)[C@H](CO)NC(=O)[C@@H](N)Cc1c[nH]cn1)[C@@H](C)O)[C@@H](C)O)C(=O)N[C@@H](CO)C(=O)N[C@@H](CCCNC(=N)N)C(=O)N[C@@H](Cc1ccc(O)cc1)C(=O)N[C@@H](CC(C)C)C(=O)N[C@@H](CC(=O)O)C(=O)N[C@@H](CO)C(=O)N[C@@H](CCC(=O)O)C(=O)N[C@@H](CCCNC(=N)N)C(=O)N[C@@H](C)C(=O)N[C@@H](CCCNC(=N)N)C(=O)N[C@@H](CC(=O)O)C(=O)N[C@@H](Cc1ccccc1)C(=O)N[C@H](C(=O)N[C@@H](C)C(=O)N[C@@H](Cc1c[nH]c2ccccc12)C(=O)N[C@@H](CC(C)C)C(=O)N[C@@H](CCC(=O)O)C(=O)N[C@@H](C)C(=O)NCC(=O)NCC(N)=O)C(C)C)C(=O)O) [g848]	cAMP EC50 (assay 1) (human glucagon receptor [4]): 0.000966 nM; cAMP EC50 (assay 1) (human GLP-1 receptor [5]): 0.00942 nM; cAMP EC50 (assay 1) [6]: 2.77 nM
0.0396	29.4	0.0232	HGQGTFTSDYSKYK([γGlu-Palmitoyl])DSERARDFVAWLVAGG-NH2 (N-terminus assumed; SMILES CCCCCCCCCCCCCCCC(=O)N[C@@H](CCC(=O)NCCCC[C@H](NC(=O)[C@H](Cc1ccc(O)cc1)NC(=O)[C@H](CCCCN)NC(=O)[C@H](CO)NC(=O)[C@H](Cc1ccc(O)cc1)NC(=O)[C@H](CC(=O)O)NC(=O)[C@H](CO)NC(=O)[C@@H](NC(=O)[C@H](Cc1ccccc1)NC(=O)[C@@H](NC(=O)CNC(=O)[C@H](CCC(N)=O)NC(=O)CNC(=O)[C@@H](N)Cc1c[nH]cn1)[C@@H](C)O)[C@@H](C)O)C(=O)N[C@@H](CC(=O)O)C(=O)N[C@@H](CO)C(=O)N[C@@H](CCC(=O)O)C(=O)N[C@@H](CCCNC(=N)N)C(=O)N[C@@H](C)C(=O)N[C@@H](CCCNC(=N)N)C(=O)N[C@@H](CC(=O)O)C(=O)N[C@@H](Cc1ccccc1)C(=O)N[C@H](C(=O)N[C@@H](C)C(=O)N[C@@H](Cc1c[nH]c2ccccc12)C(=O)N[C@@H](CC(C)C)C(=O)N[C@H](C(=O)N[C@@H](C)C(=O)NCC(=O)NCC(N)=O)C(C)C)C(C)C)C(=O)O) [g732]	
0.00124	4.53	0.0274	HSQGTFTSDYSKYK([γGlu-Palmitoyl])DSERARDFVAWLVAGG-NH2 (N-terminus assumed; SMILES CCCCCCCCCCCCCCCC(=O)N[C@@H](CCC(=O)NCCCC[C@H](NC(=O)[C@H](Cc1ccc(O)cc1)NC(=O)[C@H](CCCCN)NC(=O)[C@H](CO)NC(=O)[C@H](Cc1ccc(O)cc1)NC(=O)[C@H](CC(=O)O)NC(=O)[C@H](CO)NC(=O)[C@@H](NC(=O)[C@H](Cc1ccccc1)NC(=O)[C@@H](NC(=O)CNC(=O)[C@H](CCC(N)=O)NC(=O)[C@H](CO)NC(=O)[C@@H](N)Cc1c[nH]cn1)[C@@H](C)O)[C@@H](C)O)C(=O)N[C@@H](CC(=O)O)C(=O)N[C@@H](CO)C(=O)N[C@@H](CCC(=O)O)C(=O)N[C@@H](CCCNC(=N)N)C(=O)N[C@@H](C)C(=O)N[C@@H](CCCNC(=N)N)C(=O)N[C@@H](CC(=O)O)C(=O)N[C@@H](Cc1ccccc1)C(=O)N[C@H](C(=O)N[C@@H](C)C(=O)N[C@@H](Cc1c[nH]c2ccccc12)C(=O)N[C@@H](CC(C)C)C(=O)N[C@H](C(=O)N[C@@H](C)C(=O)NCC(=O)NCC(N)=O)C(C)C)C(C)C)C(=O)O) [g777]	
			HSQGTFTSDKSSYLDSRSARDFVAWLEAGG (X10 = K(gE-palm); C-terminal amide) [G865]	cAMP EC50 (assay 1) (human glucagon receptor [7]): 0.0126 nM; cAMP EC50 (assay 1) (human GLP-1 receptor [8]): 0.0083 nM; cAMP EC50 (assay 1) [9]: 22 nM; cAMP EC50 (assay 2, 3.2% mouse serum albumin) (mouse GLP-1 receptor): 0.096 nM; cAMP EC50 (assay 2, 3.2% mouse serum albumin) (mouse glucagon receptor): 1.1 nM; cAMP EC50 (assay 2, 4.4% human serum albumin) (human GLP-1 receptor [10]): 0.15 nM; cAMP EC50 (assay 2, 3.2% rat serum albumin) (rat glucagon receptor): 87.1 nM
